For 167 variants, self-cleavage results are on record in the RNAGym collection of RNA variant scans (doi:10.7554/elife.80360).

The chains are these.
B1: HDV Ribozyme (parent)
chain: GGCCGGCAUGGUCCCAGCCUCCUCGCUGGCGCCGGCUGGGCAACAUUCCGAGGGGACCGUCCCCUCGGUAAUGGCGAAUGGGACCCA

Variants of B1 are the subject of the data set. The data set can be described thus: self-cleavage, relative activity (ratio to wild type); higher = more cleavage; co-transcriptional.
For the variant G67A G74U, the self-cleavage was 0.534.

With G67C C86G, the self-cleavage came out at 0.933.

On to C66G U72A, for which the self-cleavage is 0.587.

Regarding C66G U72C, the self-cleavage came out at 0.453.

For the variant C66G U72G, the self-cleavage was 0.266.

Consider G67A C86G, for which the self-cleavage was 0.895.

Consider G67A C86U, for which the self-cleavage turned out to be 0.845.

Consider G67A C86A, for which the self-cleavage was found to be 0.985.

For G68A A70U, the self-cleavage came to 1.12.

For G68A A70C, the self-cleavage stood at 0.707.

For G68A A70G, the self-cleavage is 1.07.

With G67C U79G, the self-cleavage was 0.435.

For G67C U79A, the self-cleavage stood at 0.935.

Consider G67C U79C, for which the self-cleavage is 0.305.

On to G68A A77C, for which the self-cleavage amounted to 0.155.

In the case of G68A A77U, the self-cleavage is 0.394.

Regarding G68A A77G, the self-cleavage amounted to 0.743.

With G68A G74C, the self-cleavage stood at 0.314.

As to G68A G74U, the self-cleavage is 0.612.

In the case of G68A C86A, the self-cleavage is 0.822.

Regarding G68A C86U, the self-cleavage worked out at 0.965.

Regarding C66U G76A, the self-cleavage was 0.86.

C66U G76U: the self-cleavage was 0.936.

For C66U G76C, the self-cleavage is 0.965.

On to U69C C75A, for which the self-cleavage is 0.0536.

Turning to U69C C75G, the self-cleavage was determined as 0.213.

In the case of G67U C84A, the self-cleavage was determined as 0.746.

As for G67U C84G, the self-cleavage worked out at 0.609.

For the variant G67U C86U, the self-cleavage is 0.933.

Turning to G67U C86G, the self-cleavage amounted to 0.945.

For the variant G68A G81C, the self-cleavage amounted to 0.175.

For the variant G68A G81A, the self-cleavage is 0.389.

For U69A A87C, the self-cleavage came out at 1.01.

Consider U69A A87G, for which the self-cleavage stood at 0.99.

As for G68A A87G, the self-cleavage stood at 0.995.

Turning to G68A A87U, the self-cleavage amounted to 0.831.

Turning to C66G A70U, the self-cleavage came to 1.08.

Consider C66G A70G, for which the self-cleavage was determined as 0.831.

Turning to C66G A70C, the self-cleavage stood at 0.758.

For G68U A70U, the self-cleavage turned out to be 0.849.

As to G68U A70C, the self-cleavage was determined as 0.582.

As to G68A U79C, the self-cleavage was determined as 0.233.

Take C66G U69G: the self-cleavage is 1.18.

As for C66G U69A, the self-cleavage was 0.917.

For the variant G67U U72G, the self-cleavage stood at 0.389.

Turning to G68C A77U, the self-cleavage is 0.755.

Regarding G68C A77G, the self-cleavage was 0.554.

As for G68A C84A, the self-cleavage was determined as 0.817.

As to G67A G82A, the self-cleavage turned out to be 0.285.

G67A G82U: the self-cleavage is 0.348.

For G67A G76U, the self-cleavage came out at 0.965.

On to G67A G76C, for which the self-cleavage came to 0.926.

As to G67A A87G, the self-cleavage worked out at 0.936.

G68U C85U: the self-cleavage was found to be 0.972.

With G68U A77U, the self-cleavage came to 0.578.

Regarding G68U A87G, the self-cleavage is 0.908.

Regarding G68U A87U, the self-cleavage is 1.

Consider U69A C84A, for which the self-cleavage came out at 0.935.

U69A C84U: the self-cleavage was determined as 0.639.

As for U69C A78C, the self-cleavage was found to be 0.322.

For the variant G67C A70U, the self-cleavage is 0.851.

Regarding G67C A70C, the self-cleavage is 0.655.

For the variant C66U G73C, the self-cleavage was 0.528.

Regarding C66U G73A, the self-cleavage was 0.66.

Turning to C66U G73U, the self-cleavage came out at 0.284.

On to C66G C75A, for which the self-cleavage amounted to 0.166.

For C66G C75G, the self-cleavage amounted to 0.383.

For the variant G68C G76U, the self-cleavage amounted to 1.23.

In the case of G68C G76C, the self-cleavage was 1.03.

As for G67C G68U, the self-cleavage is 0.847.

For G67C G68C, the self-cleavage came out at 0.566.

As to G67C G68A, the self-cleavage is 0.955.

On to G67U A70U, for which the self-cleavage was found to be 0.812.

Take G67U A70G: the self-cleavage turned out to be 1.16.

On to C66A A77G, for which the self-cleavage is 0.706.

C66A A77U: the self-cleavage came to 0.776.

With G68A G82C, the self-cleavage was found to be 0.153.

As to G68C G82U, the self-cleavage came out at 0.352.

In the case of G68C G82A, the self-cleavage stood at 0.237.

For C66U A78U, the self-cleavage was determined as 0.309.

On to G67A G80A, for which the self-cleavage was found to be 0.41.

Take G67A G80C: the self-cleavage stood at 0.172.

For the variant G67C G73C, the self-cleavage was determined as 0.212.

Consider G67C G73A, for which the self-cleavage amounted to 0.327.

In the case of G68U U79C, the self-cleavage stood at 0.415.

For the variant G67U G81C, the self-cleavage is 0.305.

For G68U C86U, the self-cleavage worked out at 1.05.

For the variant G68U C86A, the self-cleavage was 0.956.

Take G68C U79C: the self-cleavage came to 0.302.

For the variant C66U G67U, the self-cleavage worked out at 0.972.

Turning to C66G G82A, the self-cleavage came to 0.369.

With G68A U69A, the self-cleavage was 1.

Regarding U69A U72C, the self-cleavage amounted to 0.665.

On to U69A U72A, for which the self-cleavage was determined as 0.609.

As for U69A U72G, the self-cleavage came out at 0.883.

With G68C C84G, the self-cleavage was determined as 0.639.

Take G68C C84A: the self-cleavage came out at 1.06.

With C66G G80U, the self-cleavage turned out to be 0.116.

Consider C66G G80C, for which the self-cleavage was 0.0959.

For the variant C66U C85A, the self-cleavage was 1.

With C66A A70C, the self-cleavage was 0.831.

As to C66A A70U, the self-cleavage was found to be 1.08.

In the case of C66A A70G, the self-cleavage amounted to 0.745.

Take G67C C85A: the self-cleavage was 0.7.

For the variant G67C C85G, the self-cleavage came to 0.96.

For the variant C66A C85A, the self-cleavage came to 0.939.

Take G68A U72G: the self-cleavage amounted to 0.312.

Turning to G68A U72C, the self-cleavage worked out at 0.594.

As for U69A G82U, the self-cleavage is 0.491.

For the variant C66A C86A, the self-cleavage came out at 0.769.

Regarding C66A C86U, the self-cleavage was found to be 0.9.

On to C66U G81A, for which the self-cleavage is 0.509.

For C66U G81U, the self-cleavage came to 0.382.

Regarding U69A A70U, the self-cleavage is 0.95.

Turning to U69C G76C, the self-cleavage came to 1.11.

Take U69C G76A: the self-cleavage came to 1.07.

Regarding G67A A70U, the self-cleavage was 0.776.

On to G67A A70C, for which the self-cleavage was 0.475.

Regarding G68U U72G, the self-cleavage is 0.359.

As for G68U U72A, the self-cleavage is 0.277.

For the variant G68U U69G, the self-cleavage was determined as 0.773.

In the case of G68U U69A, the self-cleavage was determined as 0.912.

For the variant C66U G82C, the self-cleavage came to 0.268.

For C66U G82A, the self-cleavage turned out to be 0.649.

Turning to C66G A77U, the self-cleavage amounted to 0.597.

Take C66U C86A: the self-cleavage worked out at 0.905.

As to C66U A87U, the self-cleavage is 1.23.

Regarding G68U C84G, the self-cleavage amounted to 0.525.

C66A G74A: the self-cleavage is 0.519.

On to C66A G74U, for which the self-cleavage was determined as 0.739.

In the case of C66A G74C, the self-cleavage is 0.293.

Consider U69C A70G, for which the self-cleavage turned out to be 0.889.

Turning to G67A A83G, the self-cleavage came out at 0.39.

As for C66U G80A, the self-cleavage amounted to 0.475.

For the variant C66U G80C, the self-cleavage worked out at 0.153.

With G67A U69C, the self-cleavage was determined as 0.927.

Regarding G67A U69A, the self-cleavage worked out at 1.

In the case of G67A U69G, the self-cleavage stood at 0.776.

Regarding C66G C85G, the self-cleavage was found to be 0.969.

G67A C85A: the self-cleavage was determined as 0.844.

Turning to G67A C85G, the self-cleavage was 1.1.

On to G67A C85U, for which the self-cleavage worked out at 1.03.

Consider G68U G74U, for which the self-cleavage was found to be 0.604.

As to G68C A78U, the self-cleavage was found to be 0.35.

On to U69A C85G, for which the self-cleavage came to 1.16.

As to U69A C85A, the self-cleavage came out at 0.767.

For the variant C66G G74A, the self-cleavage was 0.471.

In the case of C66G G74U, the self-cleavage worked out at 0.396.

On to C66U G68A, for which the self-cleavage was 0.92.

Regarding C66U G68C, the self-cleavage is 0.753.

With C66U G68U, the self-cleavage was 0.935.

Regarding G67U G82U, the self-cleavage is 0.227.

C66A G73C: the self-cleavage was 0.277.

Regarding C66A G73A, the self-cleavage came to 0.63.

With C66A G73U, the self-cleavage was 0.171.

Take C66A G81C: the self-cleavage amounted to 0.163.

As for C66A G81A, the self-cleavage is 0.354.

Consider C66A U69G, for which the self-cleavage is 0.755.

C66A U69A: the self-cleavage worked out at 1.16.

As for C66A U69C, the self-cleavage is 1.1.

Take G67U G80C: the self-cleavage worked out at 0.128.

With G67U G80A, the self-cleavage is 0.355.

Consider G67C A83U, for which the self-cleavage is 0.469.

As for C66U A71C, the self-cleavage came out at 0.54.

With G68C G74C, the self-cleavage turned out to be 0.181.

For the variant G67U C75G, the self-cleavage was 0.185.

On to G67A A77C, for which the self-cleavage was determined as 0.325.
